{"source": "patent US20190309059A1", "about": "(SHANGHAI PHARMAEXPLORER, published 2019)", "binders": {"B1": {"name": "29D9H8 (lead antibody, mouse hybridoma) (antibody, V domains shown)", "VH": "QVQLQQSGAELVRPGASVTLSCKASGYTFTDYEMHWVKQTPVHGLEWIGGIDPETGGTASNQKFKGKAILTADKSSSTAYMELRSLTSEDSAVYYCTSGDYFGGGPFAYWGQGTLVTVSA", "VL": "DIKMTQSPSSMYASLGERVTITCKASQDINSYLSWFQQKPGKSPKTLIYRANRLVDGVPSRFSGSGSGQDYSLTISSLDYEDMGIYYCLQYDEFPYTFGGGTKLEIK", "notes": "Mouse monoclonal antibody purified from hybridoma supernatant on Protein G"}}, "key": {"[1]": {"target": "his-labeled human IL-13 (immunogen A) (human) (UniProt P35225)", "test": "FACS blocking, biotin-IL-13 on IL-13Ra1/IL-4Ra HEK293 cells; antibody at 6.67 nM"}, "[2]": {"target": "his-labeled human IL-13 (immunogen A) (human) (UniProt P35225)", "test": "FACS blocking, biotin-IL-13 on IL-13Ra1/IL-4Ra HEK293 cells; antibody at 33.33 nM"}, "[3]": {"target": "his-labeled human IL-13 (immunogen A) (human) (UniProt P35225)", "test": "cell-based or functional assay"}, "[4]": {"target": "his-labeled human IL-13 (immunogen A) (human) (UniProt P35225)", "test": "FACS blocking assay: antibody titrated with biotin-labeled immunogen A (20 ng/mL); blocked partner IL-13Ra2 on HEK293 clone 1A1; Alexa 488 streptavidin"}, "[5]": {"target": "his-labeled human IL-13 (immunogen A) (human) (UniProt P35225)", "test": "FACS blocking, biotin-IL-13 on IL-13Ra1/IL-4Ra HEK293 cells; antibody at 0.01 nM"}, "[6]": {"target": "his-labeled human IL-13 (immunogen A) (human) (UniProt P35225)", "test": "FACS blocking, biotin-IL-13 on IL-13Ra2 HEK293 cells; antibody at 0.27 nM"}, "[7]": {"target": "his-labeled human IL-13 (immunogen A) (human) (UniProt P35225)", "test": "FACS blocking, biotin-IL-13 on IL-13Ra1/IL-4Ra HEK293 cells; antibody at 0.002 nM"}, "[8]": {"target": "his-labeled human IL-13 (immunogen A) (human) (UniProt P35225)", "test": "FACS blocking, biotin-IL-13 on IL-13Ra2 HEK293 cells; antibody at 1.33 nM"}, "[9]": {"target": "his-labeled human IL-13 (immunogen A) (human) (UniProt P35225)", "test": "ELISA, biotin-immunogen A; antibody at 2.67 nM"}, "[10]": {"target": "his-labeled human IL-13 (immunogen A) (human) (UniProt P35225)", "test": "FACS blocking, biotin-IL-13 on IL-13Ra2 HEK293 cells; antibody at 0.05 nM"}, "[11]": {"target": "cynomolgus IL-13 (purchased from sino biological) (cynomolgus) (UniProt Q0PW92)", "sequence (Q0PW92 entry or part of it)": "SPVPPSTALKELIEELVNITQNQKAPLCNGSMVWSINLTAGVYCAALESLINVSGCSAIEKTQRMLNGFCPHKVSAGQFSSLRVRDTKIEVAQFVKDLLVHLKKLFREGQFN", "test": "ELISA, cynomolgus IL-13; antibody at 0.004 nM"}, "[12]": {"target": "cynomolgus IL-13 (purchased from sino biological) (cynomolgus) (UniProt Q0PW92)", "test": "ELISA, cynomolgus IL-13; antibody at 0.11 nM"}, "[13]": {"target": "cynomolgus IL-13 (purchased from sino biological) (cynomolgus) (UniProt Q0PW92)", "test": "ELISA, cynomolgus IL-13; antibody at 0.53 nM"}, "[14]": {"target": "his-labeled human IL-13 (immunogen A) (human) (UniProt P35225)", "test": "FACS blocking, biotin-IL-13 on IL-13Ra2 HEK293 cells; antibody at 0.01 nM"}, "[15]": {"target": "his-labeled human IL-13 (immunogen A) (human) (UniProt P35225)", "test": "FACS blocking, biotin-IL-13 on IL-13Ra1/IL-4Ra HEK293 cells; antibody at 1.33 nM"}, "[16]": {"target": "his-labeled human IL-13 (immunogen A) (human) (UniProt P35225)", "test": "FACS blocking, biotin-IL-13 on IL-13Ra2 HEK293 cells; antibody at 6.67 nM"}, "[17]": {"target": "his-labeled human IL-13 (immunogen A) (human) (UniProt P35225)", "test": "FACS blocking, biotin-IL-13 on IL-13Ra2 HEK293 cells; antibody at 33.33 nM"}, "[18]": {"target": "his-labeled human IL-13 (immunogen A) (human) (UniProt P35225)", "test": "FACS blocking, biotin-IL-13 on IL-13Ra1/IL-4Ra HEK293 cells; antibody at 166.67 nM"}, "[19]": {"target": "his-labeled human IL-13 (immunogen A) (human) (UniProt P35225)", "test": "FACS blocking, biotin-IL-13 on IL-13Ra2 HEK293 cells; antibody at 166.67 nM"}, "[20]": {"target": "his-labeled human IL-13 (immunogen A) (human) (UniProt P35225)", "test": "FACS blocking, biotin-IL-13 on IL-13Ra1/IL-4Ra HEK293 cells; antibody at 0.27 nM"}, "[21]": {"target": "his-labeled human IL-13 (immunogen A) (human) (UniProt P35225)", "test": "FACS blocking, biotin-IL-13 on IL-13Ra2 HEK293 cells; antibody at 0.002 nM"}, "[22]": {"target": "cynomolgus IL-13 (purchased from sino biological) (cynomolgus) (UniProt Q0PW92)", "test": "ELISA, cynomolgus IL-13; antibody at 0.021 nM"}, "[23]": {"target": "cynomolgus IL-13 (purchased from sino biological) (cynomolgus) (UniProt Q0PW92)", "test": "ELISA, cynomolgus IL-13; antibody at 2.67 nM"}, "[24]": {"target": "his-labeled human IL-13 (immunogen A) (human) (UniProt P35225)", "test": "FACS blocking, biotin-IL-13 on IL-13Ra1/IL-4Ra HEK293 cells; antibody at 0.05 nM"}}}
{"binder": "B1", "values": [{"measurement": "mean fluorescence intensity", "setting": "[1]", "value": 16.6}, {"measurement": "mean fluorescence intensity", "setting": "[2]", "value": 15.9}, {"measurement": "TARC (pg/mL), A549 cells + IL-13 5 ng/mL + TNFα; antibody at 0.001 nM", "setting": "[3]", "value": 1910, "unit": "pg/mL"}, {"measurement": "TARC (pg/mL), A549 cells + IL-13 5 ng/mL + TNFα; antibody at 0.004 nM", "setting": "[3]", "value": 1720, "unit": "pg/mL"}, {"measurement": "TARC (pg/mL), A549 cells + IL-13 5 ng/mL + TNFα; antibody at 0.021 nM", "setting": "[3]", "value": 1600, "unit": "pg/mL"}, {"measurement": "TARC (pg/mL), A549 cells + IL-13 5 ng/mL + TNFα; antibody at 0.11 nM", "setting": "[3]", "value": 1300, "unit": "pg/mL"}, {"measurement": "TARC (pg/mL), A549 cells + IL-13 5 ng/mL + TNFα; antibody at 0.5 nM", "setting": "[3]", "value": 653, "unit": "pg/mL"}, {"measurement": "TARC (pg/mL), A549 cells + IL-13 5 ng/mL + TNFα; antibody at 2.7 nM", "setting": "[3]", "value": 146, "unit": "pg/mL"}, {"measurement": "TARC (pg/mL), A549 cells + IL-13 5 ng/mL + TNFα; antibody at 13.3 nM", "setting": "[3]", "value": 53, "unit": "pg/mL"}, {"measurement": "TARC (pg/mL), A549 cells + IL-13 5 ng/mL + TNFα; antibody at 66.7 nM", "setting": "[3]", "value": 42, "unit": "pg/mL"}, {"measurement": "IC50 (read off the curve)", "setting": "[4]", "value": 200, "unit": "pM"}, {"measurement": "mean fluorescence intensity", "setting": "[5]", "value": 74.2}, {"measurement": "mean fluorescence intensity", "setting": "[6]", "value": 45.4}, {"measurement": "mean fluorescence intensity", "setting": "[7]", "value": 75.3}, {"measurement": "mean fluorescence intensity", "setting": "[8]", "value": 32.3}, {"measurement": "OD450 nm", "setting": "[9]", "value": 1.61}, {"measurement": "mean fluorescence intensity", "setting": "[10]", "value": 67.6}, {"measurement": "OD450 nm", "setting": "[11]", "value": 0.19}, {"measurement": "OD450 nm", "setting": "[12]", "value": 1.24}, {"measurement": "OD450 nm", "setting": "[13]", "value": 2.05}, {"measurement": "mean fluorescence intensity", "setting": "[14]", "value": 74.6}, {"measurement": "mean fluorescence intensity", "setting": "[15]", "value": 24}, {"measurement": "mean fluorescence intensity", "setting": "[16]", "value": 23.6}, {"measurement": "mean fluorescence intensity", "setting": "[17]", "value": 21.5}, {"measurement": "mean fluorescence intensity", "setting": "[18]", "value": 14.8}, {"measurement": "mean fluorescence intensity", "setting": "[19]", "value": 20.5}, {"measurement": "mean fluorescence intensity", "setting": "[20]", "value": 45.3}, {"measurement": "mean fluorescence intensity", "setting": "[21]", "value": 76.3}, {"measurement": "OD450 nm", "setting": "[22]", "value": 0.56}, {"measurement": "OD450 nm", "setting": "[23]", "value": 2.36}, {"measurement": "mean fluorescence intensity", "setting": "[24]", "value": 68.5}]}
